T1: human DR4 (Death Receptor 4), cell surface expressed on human tumor cell lines (human, UniProt O00220 24-468)
T1 construct: also called TNFRSF10A; TRAIL-R1
T1 sequence: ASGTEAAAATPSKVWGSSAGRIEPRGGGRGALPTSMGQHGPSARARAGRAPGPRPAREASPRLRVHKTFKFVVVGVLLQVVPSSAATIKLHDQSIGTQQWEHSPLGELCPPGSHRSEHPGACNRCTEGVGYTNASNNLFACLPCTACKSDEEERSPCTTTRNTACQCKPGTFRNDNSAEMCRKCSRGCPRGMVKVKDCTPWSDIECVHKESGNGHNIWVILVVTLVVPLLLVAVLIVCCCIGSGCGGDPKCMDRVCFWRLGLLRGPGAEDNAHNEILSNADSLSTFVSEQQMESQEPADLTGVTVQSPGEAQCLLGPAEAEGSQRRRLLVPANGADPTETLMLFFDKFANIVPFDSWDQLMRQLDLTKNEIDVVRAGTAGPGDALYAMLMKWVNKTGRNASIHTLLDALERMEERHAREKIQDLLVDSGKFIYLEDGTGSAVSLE

T2: cynomolgus monkey FAPα on Expi293F cells (cynomolgus monkey (Macaca fascicularis), UniProt Q12884 1-760 (human entry))
T2 sequence: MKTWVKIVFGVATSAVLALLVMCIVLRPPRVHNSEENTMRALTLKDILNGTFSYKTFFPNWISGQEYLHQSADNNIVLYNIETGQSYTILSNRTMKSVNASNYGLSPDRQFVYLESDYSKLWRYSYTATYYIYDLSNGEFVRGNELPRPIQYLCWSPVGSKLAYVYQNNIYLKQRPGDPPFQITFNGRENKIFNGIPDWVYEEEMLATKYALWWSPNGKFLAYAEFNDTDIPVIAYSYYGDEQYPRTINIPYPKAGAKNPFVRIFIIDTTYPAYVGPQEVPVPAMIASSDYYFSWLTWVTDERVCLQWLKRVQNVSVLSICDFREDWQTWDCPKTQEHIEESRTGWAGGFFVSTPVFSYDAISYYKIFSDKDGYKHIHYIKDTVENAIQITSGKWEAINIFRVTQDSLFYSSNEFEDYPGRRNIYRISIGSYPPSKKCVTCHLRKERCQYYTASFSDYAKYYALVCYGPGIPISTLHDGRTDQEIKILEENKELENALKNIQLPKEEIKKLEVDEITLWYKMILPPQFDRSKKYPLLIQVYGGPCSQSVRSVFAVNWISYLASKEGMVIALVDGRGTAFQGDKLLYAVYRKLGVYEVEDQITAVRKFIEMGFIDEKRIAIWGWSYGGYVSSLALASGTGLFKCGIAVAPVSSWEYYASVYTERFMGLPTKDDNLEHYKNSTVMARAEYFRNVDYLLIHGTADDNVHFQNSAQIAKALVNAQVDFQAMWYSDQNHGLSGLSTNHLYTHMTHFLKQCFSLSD

T3: pig FAPα on Expi293F cells (pig (Sus scrofa), UniProt A5D7B7 1-760 (bovine entry))
T3 chain: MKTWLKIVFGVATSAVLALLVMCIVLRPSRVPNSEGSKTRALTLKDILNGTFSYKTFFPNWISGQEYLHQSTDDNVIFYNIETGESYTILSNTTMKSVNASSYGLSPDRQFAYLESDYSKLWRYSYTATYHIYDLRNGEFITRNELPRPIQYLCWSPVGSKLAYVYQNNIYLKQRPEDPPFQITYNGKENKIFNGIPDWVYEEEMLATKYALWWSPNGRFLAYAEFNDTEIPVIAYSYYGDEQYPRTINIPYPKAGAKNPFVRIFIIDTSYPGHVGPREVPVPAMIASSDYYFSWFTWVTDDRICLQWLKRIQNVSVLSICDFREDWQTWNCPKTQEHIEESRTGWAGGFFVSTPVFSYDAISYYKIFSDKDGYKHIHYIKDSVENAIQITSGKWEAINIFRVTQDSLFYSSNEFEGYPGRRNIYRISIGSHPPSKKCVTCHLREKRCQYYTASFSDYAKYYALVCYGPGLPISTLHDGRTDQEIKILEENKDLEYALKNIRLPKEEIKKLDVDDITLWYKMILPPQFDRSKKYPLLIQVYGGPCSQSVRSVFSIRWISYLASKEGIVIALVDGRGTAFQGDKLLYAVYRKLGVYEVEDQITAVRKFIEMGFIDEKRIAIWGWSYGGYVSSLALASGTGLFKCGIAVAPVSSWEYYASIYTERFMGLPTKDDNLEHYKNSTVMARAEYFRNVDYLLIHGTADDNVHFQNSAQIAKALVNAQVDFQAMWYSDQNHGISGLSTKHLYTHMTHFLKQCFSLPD

B1: BisG1-FAPα-FERL/DR4-FERR (bispecific antibody, human IgG1, kappa, lambda)
heavy 1: EVQLLESGGGLVQPGGSPRLSCEASGFTFSSYALSWVRQAPGKGLEWVSAISGSGGGRYYADSVKGRFTISRDNSKNTLFLQMNSLRAEDTAVYYCAKEGYSSSGTYWDHWGQGTLVTVSSASTKGPSVFPLAPSSKSTSGGTAALGCLVKDYFPEPVTVSWNSGALTSGVHTFPAVLQSSGLYSLSSVVTVPSSSLGTQTYICNVNHKPSNTKVDKRVEPKSCDKTHTCPPCPAPEFERGPSVFLFPPKPKDTLMISRTPEVTCVVVDVSHEDPEVKFNWYVDGVEVHNAKTKPREEQYNSTYRVVSVLTVLHQDWLNGKEYKCKVSNKALPAPIEKTISKAKGQPREPQVYTLPPSREEMTKNQVSLTCLVKGFYPSDIAVEWESNGQPENNYKTTPPVLDSDGSFLLYSKLTVDKSRWQQGNVFSCSVMHEALHNHYTQKSLSLSPG
light 1: AIQMTQSPSSVSASVGDRVTITCRASQGVSSWLAWYQQKPGRAPKLLIYVASTLQSGVPSRFSGSGSGTDFTLTINSLQPEDFATYYCQQANSFPPTFGQGTRLEMKRTVAAPSVFIFPPSDEQLKSGTASVVCLLNNFYPREAKVQWKVDNALQSGNSQESVTEQDSKDSTYSLSSTLTLSKADYEKHKVYACEVTHQGLSSPVTKSFNRGEC
heavy 2: QVQLQESGPGLVKPSGTLSLTCAVSGGSISSYSWWSWIRQPPGKGLEWIGELYHSGSTNYNPSLKSRVTISVDKSKNQFSLKLRSVTAADTAVYYCVRGVATIDYWGQGTLVTVSSASTKGPSVFPLAPSSKSTSGGTAALGCLVKDYFPEPVTVSWNSGALTSGVHTFPAVLQSSGLYSLSSVVTVPSSSLGTQTYICNVNHKPSNTKVDKRVEPKSCDKTHTCPPCPAPEFERGPSVFLFPPKPKDTLMISRTPEVTCVVVDVSHEDPEVKFNWYVDGVEVHNAKTKPREEQYNSTYRVVSVLTVLHQDWLNGKEYKCKVSNKALPAPIEKTISKAKGQPREPQVYTLPPSREEMTKNQVSLTCLVKGFYPSDIAVEWESNGQPENNYKTTPPVLDSDGSFFLYSRLTVDKSRWQQGNVFSCSVMHEALHNHYTQKSLSLSPG
light 2: QSALTQPPSASGSPGQSVTISCTGTSSDVGGYNFVSWYQQDPGKAPKLLIYEVTKRPSGVPDRFSGSKSGNTASLTVSGLQAEDEADYYCSSYAGSNNVMFGGGTKLTVLGQPKAAPSVTLFPPSSEELQANKATLVCLISDFYPGAVTVAWKADSSPVKAGVETTTPSKQSNNKYAASSYLSLTPEQWKSHRSYSCQVTHEGSTVEKTVAPTECS
notes: Human IgG1 bispecific made by controlled Fab-arm exchange of IgG1-FAPα-FERL and IgG1-DR4-FERR; monovalent for FAPα and for DR4; also called GEN1057
B2: BisG1-b12-FERL/DR4-FERR (bispecific antibody, human IgG1, kappa, lambda)
heavy 1: QVQLVQSGAEVKKPGASVKVSCQASGYRFSNFVIHWVRQAPGQRFEWMGWINPYNGNKEFSAKFQDRVTFTADTSANTAYMELRSLRSADTAVYYCARVGPYSWDDSPQDNYYMDVWGKGTTVIVSSASTKGPSVFPLAPSSKSTSGGTAALGCLVKDYFPEPVTVSWNSGALTSGVHTFPAVLQSSGLYSLSSVVTVPSSSLGTQTYICNVNHKPSNTKVDKRVEPKSCDKTHTCPPCPAPEFERGPSVFLFPPKPKDTLMISRTPEVTCVVVDVSHEDPEVKFNWYVDGVEVHNAKTKPREEQYNSTYRVVSVLTVLHQDWLNGKEYKCKVSNKALPAPIEKTISKAKGQPREPQVYTLPPSREEMTKNQVSLTCLVKGFYPSDIAVEWESNGQPENNYKTTPPVLDSDGSFLLYSKLTVDKSRWQQGNVFSCSVMHEALHNHYTQKSLSLSPG
light 1: EIVLTQSPGTLSLSPGERATFSCRSSHSIRSRRVAWYQHKPGQAPRLVIHGVSNRASGISDRFSGSGSGTDFTLTITRVEPEDFALYYCQVYGASSYTFGQGTKLERKRTVAAPSVFIFPPSDEQLKSGTASVVCLLNNFYPREAKVQWKVDNALQSGNSQESVTEQDSKDSTYSLSSTLTLSKADYEKHKVYACEVTHQGLSSPVTKSFNRGEC
heavy 2: B1 heavy 2
light 2: B1 light 2
notes: Fab-arm exchange of IgG1-b12-FERL and IgG1-DR4-FERR; also called bsIgG1-ctrl-FERLxDR4-FERR

Tests used:
[1] = target: T1, human DR4 (Death Receptor 4), cell …; assay: flow cytometry, PANC-1 cells, n = 2
[2] = target: T2, cynomolgus monkey FAPα on Expi293F cells; assay: flow cytometry, Expi293F cells expressing cynomolgus monkey FAPα, n = 1
Experimental: (§1) Binding of BisG1-FAPα-FERL/DR4-FERR, BisG1-FAPα-FEAL/b12-FEAR and IgG1-FAPα-FERL to FAPα of species commonly used for nonclinical toxicology studies was assessed by flow cytometry using Expi293F cells transiently expressing FAPα from different animal species. IgG1-b12 was included as negative control.
(§2) Expi293F cells expressing recombinant FAPα from various species (human, cynomolgus monkey, dog, pig, rat or mouse) were seeded (20,000 cells/well) in 96-Well round bottom plates (Greiner Bio-one, Cat #650101). Antibody dilutions were prepared using FACS buffer, consisting of PBS (Capricorn Scientific, Cat #PBS-10XA, diluted to 1×PBS in distilled water)+1% BSA (Roche, Cat #10735086001)+0.02% Sodium Azide (Bio-World, Cat #41920044-3). Plates were centrifuged, supernatant was removed, and cells were resuspended in 100 μL of antibody dilutions (concentration range 30-0.00017 μg/mL with three-fold serial dilutions using FACS buffer) of BisG1-FAPα-FERL/DR4-FERR, BisG1-FAPα-FEAL/b12-FEAR, IgG1-FAPα-FERL and IgG1-b12 and incubated for 30 min at 4° C. […] After 30 min incubation at 4° C., cells were washed with FACS buffer and resuspended in FACS buffer supplemented with TO-PRO-3 Iodide viability marker (Invitrogen, Cat #T3605, diluted 1:4,000). Antibody binding to viable cells (gMFI of PE on TO-PRO-3 negative cells) was analyzed by flow cytometry on a FACS Celesta and FACS_Diva software (first two experiments) or iQue® 3 and FlowJo software (last experiment). gMFI was determined and visualized using GraphPad Prism. Binding curves were analyzed using nonlinear regression analysis. The concentration (pg/mL) at which 50% of the maximal effect was observed (EC₅₀) was derived from the fitted curves.

[3] = target: T3, pig FAPα on Expi293F cells; assay: flow cytometry on Expi293F cells transiently expressing pig FAPα, gMFI PE
Experimental: as §1, §2

| Binder | EC50 [1] [µg/mL] | EC50 [2] [µg/mL] | binding result [3] |
| --- | --- | --- | --- |
| B1 | 1.89 | 0.24 | binds |
| B2 | 2.12 |  |  |

Reference: patent US20250002610A1 (Genmab, published 2025)
